Molecular target: T1, stabilised, trimeric ectodomain of the SARS-CoV-2 spike glycoprotein (FUR 2P) (SARS-CoV-2, Wuhan-Hu-1 (YP_009724390.1), R682S | R685S | K986P | V987P)
T1 construct: also called S trimer; trimeric spike
Test: BLI
Conditions: both partners purified

B1: CR3022 Fab (tag cleaved with TEV, as used in binding assays) (Fab, V domains shown)
VH: QMQLVQSGTEVKKPGESLKISCKGSGYGFITYWIGWVRQMPGKGLEWMGIIYPGDSETRYSPSFQGQVTISADKSINTAYLQWSSLKASDTAIYYCAGGSGISTPMDVWGQGTTVTVAS
VL: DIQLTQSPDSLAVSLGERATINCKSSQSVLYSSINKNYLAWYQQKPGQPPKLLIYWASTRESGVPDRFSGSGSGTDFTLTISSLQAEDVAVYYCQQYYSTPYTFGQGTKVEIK
  Kd: 80 nM

Source: article PMC7577971, “Antibody-mediated disruption of the SARS-CoV-2 spike glycoprotein” (Nature Communications, 2020)
